The source of these data is US20190225650A1, “PEPTIDOMIMETIC MACROCYCLES AND USE THEREOF IN REGULATING HIF1ALPHA” (AILERON THERAPEUTICS, INC., priority 2013, published 2019).

Assay [1] deals with T1, His6-tagged p300 (AA 323-423) (UniProt Q09472 323-423).
T1 construct: range 323-423; also called p300-CH; not shown: His6 tag
Put plainly: TR-FRET HIF1a/p300 displacement; grade = IC50 >700 nM. The method in brief:
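Peptides competed with HIF1α C-terminal transactivation domain for His6-p300-CH (complex 300 nM final) during 1 h at RT in 20 mM HEPES pH 7.4, 150 mM NaCl, 7.5 mM CHAPS, 1 mM DTT. Anti-Flag-K (0.5 μM) and anti-His-D2 (4 nM) were added for 2 h. IC50 was derived from the TR-FRET ratio by one-site fit.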
A general note: TR-FRET usually uses a lanthanide donor and a delayed reading to cut background.

Assay [2] has as its target T1, His6-tagged p300 (AA 323-423). The experiment in a line: TR-FRET HIF1a/p300 displacement; grade = IC50 <=200 nM. Here is the method: The ability of peptides to displace HIF1α c-terminal trans-activation domain from p300-CH was measured by a TR FRET assay. […] The complex was diluted to 300 nM final in complete assay media and competitor peptides were added. The complete assay media contained 150 mM NaCl (Sigma +S5150 or equivalent), 20 mM HEPES pH 7.4 (Boston Bioproducts, Ashland, Mass.; #BB-2076), 7.5 mM CHAPS (Thermo #28300 or equivalent), and 1 mM DTT. Protein and peptide were incubated at room temperature for 1 hour before the addition of anti-Flag-K and anti-6×HIS-D2 (CisBio, Bedford Mass.) HTRF reconstitution buffer (50 mM Phosphate pH 7, 0.8 Potassium Flouride, BSA 0.2%)¹ to a final concentration of 0.5 μM and 4 nM respectively. The reaction continued for an additional two hours at room temperature. The reaction was read on a TECAN F500 plate reader with settings recommended by CisBio. The ratio of donor to acceptor fluorescence was calculated. The resulting data was analyzed with Graphpad Prism 5.0. IC50 values were calculated for both proteins using the One Site Fit-LogIC50 equation and presented in the column “IC₅₀ (nM) (HIF1α_p300 Displacement+CHAPS)” of Table 6. ¹ Cisbio USA, Bedford, Mass.; 61HISDLB (lot 007A), 61FG2KLB (024A), HTRF Buffer (62RB3RDF)

Bridge positions count the residues as written; N and C are the ends. Square brackets hold non-standard residues; d marks the D form. S5 = C=CCCC[C@](C)(N)C(=O)O; Nle = CCCC[C@H](N)C(=O)O

In general, IC50 refers to the point on the concentration scale where inhibition reaches its midpoint. Low values mean inhibition by little substance, high ones a need for much substance.

T1 sequence (Q09472 323-423 limits assumed): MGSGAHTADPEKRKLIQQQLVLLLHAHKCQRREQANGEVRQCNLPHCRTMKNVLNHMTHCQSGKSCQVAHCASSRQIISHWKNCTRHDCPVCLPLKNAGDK

B1: SP-101 (peptide)
peptide: Ac-FIDEEVLM[S5]LVI[S5]MALD-NH2
modifications: staple 9-13
SMILES: CC[C@H](C)[C@H](NC(=O)[C@H](Cc1ccccc1)NC(C)=O)C(=O)N[C@@H](CC(=O)O)C(=O)N[C@@H](CCC(=O)O)C(=O)N[C@@H](CCC(=O)O)C(=O)N[C@H](C(=O)N[C@@H](CC(C)C)C(=O)N[C@@H](CCSC)C(=O)N[C@@]1(C)CCCC=CCCC[C@@](C)(C(=O)N[C@@H](CCSC)C(=O)N[C@@H](C)C(=O)N[C@@H](CC(C)C)C(=O)N[C@@H](CC(=O)O)C(N)=O)NC(=O)[C@H]([C@@H](C)CC)NC(=O)[C@H](C(C)C)NC(=O)[C@H](CC(C)C)NC1=O)C(C)C
For the molecule B1, the IC50 in assay [1] was > 700 nM.

B2: SP-98 (peptide)
peptide: Ac-FIDEEVLM[S5]LVI[S5]MGLD-NH2
modifications: staple 9-13
SMILES: CC[C@H](C)[C@H](NC(=O)[C@H](Cc1ccccc1)NC(C)=O)C(=O)N[C@@H](CC(=O)O)C(=O)N[C@@H](CCC(=O)O)C(=O)N[C@@H](CCC(=O)O)C(=O)N[C@H](C(=O)N[C@@H](CC(C)C)C(=O)N[C@@H](CCSC)C(=O)N[C@@]1(C)CCCC=CCCC[C@@](C)(C(=O)N[C@@H](CCSC)C(=O)NCC(=O)N[C@@H](CC(C)C)C(=O)N[C@@H](CC(=O)O)C(N)=O)NC(=O)[C@H]([C@@H](C)CC)NC(=O)[C@H](C(C)C)NC(=O)[C@H](CC(C)C)NC1=O)C(C)C
B2: in assay [1], the IC50 was > 700 nM.

B3: SP-103 (peptide)
peptide: Ac-FIDEEVLM[S5]LVI[S5]MAA-NH2
modifications: staple 9-13
SMILES: CC[C@H](C)[C@H](NC(=O)[C@H](Cc1ccccc1)NC(C)=O)C(=O)N[C@@H](CC(=O)O)C(=O)N[C@@H](CCC(=O)O)C(=O)N[C@@H](CCC(=O)O)C(=O)N[C@H](C(=O)N[C@@H](CC(C)C)C(=O)N[C@@H](CCSC)C(=O)N[C@@]1(C)CCCC=CCCC[C@@](C)(C(=O)N[C@@H](CCSC)C(=O)N[C@@H](C)C(=O)N[C@@H](C)C(N)=O)NC(=O)[C@H]([C@@H](C)CC)NC(=O)[C@H](C(C)C)NC(=O)[C@H](CC(C)C)NC1=O)C(C)C
For B3, in assay [1], the IC50 was > 700 nM.

B4: SP-100 (peptide)
peptide: Ac-FIDEEVLM[S5]LVI[S5]MALDRIKE-NH2
modifications: staple 9-13
SMILES: CC[C@H](C)[C@H](NC(=O)[C@H](CCCNC(=N)N)NC(=O)[C@H](CC(=O)O)NC(=O)[C@H](CC(C)C)NC(=O)[C@H](C)NC(=O)[C@H](CCSC)NC(=O)[C@]1(C)CCCC=CCCC[C@](C)(NC(=O)[C@H](CCSC)NC(=O)[C@H](CC(C)C)NC(=O)[C@@H](NC(=O)[C@H](CCC(=O)O)NC(=O)[C@H](CCC(=O)O)NC(=O)[C@H](CC(=O)O)NC(=O)[C@@H](NC(=O)[C@H](Cc2ccccc2)NC(C)=O)[C@@H](C)CC)C(C)C)C(=O)N[C@@H](CC(C)C)C(=O)N[C@@H](C(C)C)C(=O)N[C@@H]([C@@H](C)CC)C(=O)N1)C(=O)N[C@@H](CCCCN)C(=O)N[C@@H](CCC(=O)O)C(N)=O
Take B4: the IC50 in assay [1] is > 700 nM.

B5: SP-282 (peptide)
peptide: Ac-FIDEQVLM[S5]LVI[S5]MALDRI-NH2
modifications: staple 9-13
SMILES: CC[C@H](C)[C@H](NC(=O)[C@H](CCCNC(=N)N)NC(=O)[C@H](CC(=O)O)NC(=O)[C@H](CC(C)C)NC(=O)[C@H](C)NC(=O)[C@H](CCSC)NC(=O)[C@]1(C)CCCC=CCCC[C@](C)(NC(=O)[C@H](CCSC)NC(=O)[C@H](CC(C)C)NC(=O)[C@@H](NC(=O)[C@H](CCC(N)=O)NC(=O)[C@H](CCC(=O)O)NC(=O)[C@H](CC(=O)O)NC(=O)[C@@H](NC(=O)[C@H](Cc2ccccc2)NC(C)=O)[C@@H](C)CC)C(C)C)C(=O)N[C@@H](CC(C)C)C(=O)N[C@@H](C(C)C)C(=O)N[C@@H]([C@@H](C)CC)C(=O)N1)C(N)=O
Turning to B5, the IC50 in assay [2] was ≤ 200 nM.

B6: SP-93 (peptide)
peptide: Ac-FIDEEVLM[S5]LVI[S5]MGLDRIKELP-NH2
modifications: staple 9-13
SMILES: CC[C@H](C)[C@H](NC(=O)[C@H](Cc1ccccc1)NC(C)=O)C(=O)N[C@@H](CC(=O)O)C(=O)N[C@@H](CCC(=O)O)C(=O)N[C@@H](CCC(=O)O)C(=O)N[C@H](C(=O)N[C@@H](CC(C)C)C(=O)N[C@@H](CCSC)C(=O)N[C@@]1(C)CCCC=CCCC[C@@](C)(C(=O)N[C@@H](CCSC)C(=O)NCC(=O)N[C@@H](CC(C)C)C(=O)N[C@@H](CC(=O)O)C(=O)N[C@@H](CCCNC(=N)N)C(=O)N[C@H](C(=O)N[C@@H](CCCCN)C(=O)N[C@@H](CCC(=O)O)C(=O)N[C@@H](CC(C)C)C(=O)N2CCC[C@H]2C(N)=O)[C@@H](C)CC)NC(=O)[C@H]([C@@H](C)CC)NC(=O)[C@H](C(C)C)NC(=O)[C@H](CC(C)C)NC1=O)C(C)C
B6: the IC50 in assay [1] was > 700 nM.

B7: SP-119 (peptide)
peptide: Ac-FIDE[S5]VLM[S5]LVIE[Nle]ALDRI-NH2
modifications: staple 5-9
SMILES: CCCC[C@H](NC(=O)[C@H](CCC(=O)O)NC(=O)[C@@H](NC(=O)[C@@H](NC(=O)[C@H](CC(C)C)NC(=O)[C@]1(C)CCCC=CCCC[C@](C)(NC(=O)[C@H](CCC(=O)O)NC(=O)[C@H](CC(=O)O)NC(=O)[C@@H](NC(=O)[C@H](Cc2ccccc2)NC(C)=O)[C@@H](C)CC)C(=O)N[C@@H](C(C)C)C(=O)N[C@@H](CC(C)C)C(=O)N[C@@H](CCSC)C(=O)N1)C(C)C)[C@@H](C)CC)C(=O)N[C@@H](C)C(=O)N[C@@H](CC(C)C)C(=O)N[C@@H](CC(=O)O)C(=O)N[C@@H](CCCNC(=N)N)C(=O)N[C@H](C(N)=O)[C@@H](C)CC
With B7, in assay [2], the IC50 was ≤ 200 nM.

B8: SP-99 (peptide)
peptide: Ac-FIDEEVLM[S5]LVI[S5]MG-NH2
modifications: staple 9-13
SMILES: CC[C@H](C)[C@H](NC(=O)[C@H](Cc1ccccc1)NC(C)=O)C(=O)N[C@@H](CC(=O)O)C(=O)N[C@@H](CCC(=O)O)C(=O)N[C@@H](CCC(=O)O)C(=O)N[C@H](C(=O)N[C@@H](CC(C)C)C(=O)N[C@@H](CCSC)C(=O)N[C@@]1(C)CCCC=CCCC[C@@](C)(C(=O)N[C@@H](CCSC)C(=O)NCC(N)=O)NC(=O)[C@H]([C@@H](C)CC)NC(=O)[C@H](C(C)C)NC(=O)[C@H](CC(C)C)NC1=O)C(C)C
B8: in assay [1], the 50% inhibitory concentration (IC50) was > 700 nM.

B9: SP-102 (peptide)
peptide: Ac-FIDEEVLM[S5]LVI[S5]MA-NH2
modifications: staple 9-13
SMILES: CC[C@H](C)[C@H](NC(=O)[C@H](Cc1ccccc1)NC(C)=O)C(=O)N[C@@H](CC(=O)O)C(=O)N[C@@H](CCC(=O)O)C(=O)N[C@@H](CCC(=O)O)C(=O)N[C@H](C(=O)N[C@@H](CC(C)C)C(=O)N[C@@H](CCSC)C(=O)N[C@@]1(C)CCCC=CCCC[C@@](C)(C(=O)N[C@@H](CCSC)C(=O)N[C@@H](C)C(N)=O)NC(=O)[C@H]([C@@H](C)CC)NC(=O)[C@H](C(C)C)NC(=O)[C@H](CC(C)C)NC1=O)C(C)C
For B9, the IC50 in assay [1] is > 700 nM.

B10: SP-97 (peptide)
peptide: Ac-FIDEEVLM[S5]LVI[S5]MGLDRI-NH2
modifications: staple 9-13
SMILES: CC[C@H](C)[C@H](NC(=O)[C@H](CCCNC(=N)N)NC(=O)[C@H](CC(=O)O)NC(=O)[C@H](CC(C)C)NC(=O)CNC(=O)[C@H](CCSC)NC(=O)[C@]1(C)CCCC=CCCC[C@](C)(NC(=O)[C@H](CCSC)NC(=O)[C@H](CC(C)C)NC(=O)[C@@H](NC(=O)[C@H](CCC(=O)O)NC(=O)[C@H](CCC(=O)O)NC(=O)[C@H](CC(=O)O)NC(=O)[C@@H](NC(=O)[C@H](Cc2ccccc2)NC(C)=O)[C@@H](C)CC)C(C)C)C(=O)N[C@@H](CC(C)C)C(=O)N[C@@H](C(C)C)C(=O)N[C@@H]([C@@H](C)CC)C(=O)N1)C(N)=O
B10: the IC50 in assay [1] is > 700 nM.

B11: SP-90 (peptide)
peptide: Ac-FIDEEVLM[S5]LVI[S5]MGLDRIKELPELW-NH2
modifications: staple 9-13
SMILES: CC[C@H](C)[C@H](NC(=O)[C@H](Cc1ccccc1)NC(C)=O)C(=O)N[C@@H](CC(=O)O)C(=O)N[C@@H](CCC(=O)O)C(=O)N[C@@H](CCC(=O)O)C(=O)N[C@H](C(=O)N[C@@H](CC(C)C)C(=O)N[C@@H](CCSC)C(=O)N[C@@]1(C)CCCC=CCCC[C@@](C)(C(=O)N[C@@H](CCSC)C(=O)NCC(=O)N[C@@H](CC(C)C)C(=O)N[C@@H](CC(=O)O)C(=O)N[C@@H](CCCNC(=N)N)C(=O)N[C@H](C(=O)N[C@@H](CCCCN)C(=O)N[C@@H](CCC(=O)O)C(=O)N[C@@H](CC(C)C)C(=O)N2CCC[C@H]2C(=O)N[C@@H](CCC(=O)O)C(=O)N[C@@H](CC(C)C)C(=O)N[C@@H](Cc2c[nH]c3ccccc23)C(N)=O)[C@@H](C)CC)NC(=O)[C@H]([C@@H](C)CC)NC(=O)[C@H](C(C)C)NC(=O)[C@H](CC(C)C)NC1=O)C(C)C
Take B11: the IC50 in assay [1] is > 700 nM.
